In US20240150484A1:

What was measured:
[1] = target: His-tagged biotinylated murine FcγRIV monomeric ECD (Sino Biological) (murine); assay: BLI, steady state; responses did not reach a plateau
[2] = target: His-tagged biotinylated human FcγRIIIa allotype 158V monomeric ECD (Sino Biological) (human) (UniProt P08637); assay: as above
[3] = target: His-tagged murine FcγRI monomeric ECD (Sino Biological) (murine) (UniProt P26151); assay: BLI, FcγR on Ni-NTA sensor, 1:1 global fit
[4] = target: His-tagged biotinylated human FcγRIIIa allotype 158V monomeric ECD (Sino Biological) (human) (UniProt P08637); assay: BLI, steady state; responses did not reach a plateau; remark: listed apart in the source
[5] = target: His-tagged human FcγRIa monomeric ECD (Sino Biological) (human) (UniProt P12314); assay: BLI, 1:1 global fit; analysis not optimal, <4 fits
Sequence of His-tagged human FcγRIa monomeric ECD (Sino Biological) (human) (P12314 16-292): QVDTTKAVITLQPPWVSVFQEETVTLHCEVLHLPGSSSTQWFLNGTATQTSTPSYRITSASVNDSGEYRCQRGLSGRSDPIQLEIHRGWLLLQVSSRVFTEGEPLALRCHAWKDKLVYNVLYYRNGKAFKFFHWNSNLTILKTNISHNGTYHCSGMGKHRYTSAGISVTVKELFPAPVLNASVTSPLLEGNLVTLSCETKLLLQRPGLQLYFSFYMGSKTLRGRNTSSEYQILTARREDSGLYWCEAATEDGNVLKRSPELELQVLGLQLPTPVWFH

[6] = target: His-tagged biotinylated murine FcγRIV monomeric ECD (Sino Biological) (murine); assay: BLI
[7] = target: His-tagged human FcγRIa monomeric ECD (Sino Biological) (human) (UniProt P12314); assay: BLI, FcγR on Ni-NTA sensor, 1:1 global fit
[8] = target: His-tagged biotinylated murine FcγRIIb monomeric ECD (Sino Biological) (murine) (UniProt P08101); assay: BLI, FcγR on SA sensor, steady state
Sequence of His-tagged biotinylated murine FcγRIIb monomeric ECD (Sino Biological) (murine) (P08101 30-210): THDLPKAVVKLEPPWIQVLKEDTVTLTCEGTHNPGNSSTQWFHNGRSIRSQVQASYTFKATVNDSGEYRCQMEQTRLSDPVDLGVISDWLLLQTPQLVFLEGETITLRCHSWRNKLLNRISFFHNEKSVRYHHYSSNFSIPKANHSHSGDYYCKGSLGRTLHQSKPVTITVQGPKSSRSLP

[9] = target: His-tagged biotinylated murine FcγRIII monomeric ECD (Sino Biological) (murine) (UniProt P08508); assay: BLI, FcγR on SA sensor, steady state
Sequence of His-tagged biotinylated murine FcγRIII monomeric ECD (Sino Biological) (murine) (P08508 31-215): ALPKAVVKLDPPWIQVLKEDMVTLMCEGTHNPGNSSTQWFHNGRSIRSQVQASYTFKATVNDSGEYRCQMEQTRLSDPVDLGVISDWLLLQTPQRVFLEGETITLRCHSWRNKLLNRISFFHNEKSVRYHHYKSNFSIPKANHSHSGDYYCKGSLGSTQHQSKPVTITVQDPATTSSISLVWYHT

[10] = target: His-tagged biotinylated human FcγRIIa allotype 131H monomeric ECD (Sino Biological) (human) (UniProt P12318); assay: BLI, FcγR on SA sensor, steady state
Sequence of His-tagged biotinylated human FcγRIIa allotype 131H monomeric ECD (Sino Biological) (human) (P12318 34-217): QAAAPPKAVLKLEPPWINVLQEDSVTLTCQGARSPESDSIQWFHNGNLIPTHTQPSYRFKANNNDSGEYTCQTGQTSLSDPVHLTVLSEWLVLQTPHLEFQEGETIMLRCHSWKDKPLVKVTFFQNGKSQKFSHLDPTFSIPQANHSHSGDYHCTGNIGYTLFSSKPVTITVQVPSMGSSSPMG

[11] = target: His-tagged biotinylated murine FcγRIV monomeric ECD (Sino Biological) (murine); assay: BLI, FcγR on SA sensor, steady state
[12] = target: His-tagged biotinylated human FcγRIIIa allotype 158V monomeric ECD (Sino Biological) (human) (UniProt P08637); assay: BLI, FcγR on SA sensor, steady state
[13] = target: His-tagged biotinylated human FcγRIIb monomeric ECD (Sino Biological) (human) (UniProt P31994); assay: BLI, FcγR on SA sensor, steady state
Sequence of His-tagged biotinylated human FcγRIIb monomeric ECD (Sino Biological) (human) (P31994 43-217): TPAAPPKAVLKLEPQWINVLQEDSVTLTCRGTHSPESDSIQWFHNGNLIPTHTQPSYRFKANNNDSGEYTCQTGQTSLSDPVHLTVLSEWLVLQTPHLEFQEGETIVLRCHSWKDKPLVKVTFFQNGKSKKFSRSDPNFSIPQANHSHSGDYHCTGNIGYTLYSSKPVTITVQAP

[14] = target: His-tagged murine FcγRI monomeric ECD (Sino Biological) (murine) (UniProt P26151); assay: BLI, 1:1 global fit; analysis not optimal, <4 fits
[15] = target: His-tagged murine FcγRI monomeric ECD (Sino Biological) (murine) (UniProt P26151); assay: BLI
[16] = target: FcγRIIIa on natural killer cells in human PBMC (human) (UniProt P08637); assay: cell-based or functional assay
Sequence of FcγRIIIa on natural killer cells in human PBMC (human) (P08637 17-254): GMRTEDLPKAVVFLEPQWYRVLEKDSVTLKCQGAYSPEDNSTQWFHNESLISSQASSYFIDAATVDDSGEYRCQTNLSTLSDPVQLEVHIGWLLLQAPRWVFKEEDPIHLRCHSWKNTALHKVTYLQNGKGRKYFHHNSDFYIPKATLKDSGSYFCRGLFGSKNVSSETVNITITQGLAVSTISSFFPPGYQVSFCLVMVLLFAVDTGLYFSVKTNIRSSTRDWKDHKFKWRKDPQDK

[17] = target: His-tagged cynomolgus FcγRI monomeric ECD (R&D Systems) (cynomolgus (Macaca fascicularis)); assay: BLI, FcγR on Ni-NTA sensor, 1:1 global fit
[18] = target: His-tagged biotinylated cynomolgus FcγRIII monomeric ECD (ACROBiosystems) (cynomolgus (Macaca fascicularis)) (UniProt Q8SPW2); assay: BLI, FcγR on SA sensor, steady state
Sequence of His-tagged biotinylated cynomolgus FcγRIII monomeric ECD (ACROBiosystems) (cynomolgus (Macaca fascicularis)) (Q8SPW2 17-208): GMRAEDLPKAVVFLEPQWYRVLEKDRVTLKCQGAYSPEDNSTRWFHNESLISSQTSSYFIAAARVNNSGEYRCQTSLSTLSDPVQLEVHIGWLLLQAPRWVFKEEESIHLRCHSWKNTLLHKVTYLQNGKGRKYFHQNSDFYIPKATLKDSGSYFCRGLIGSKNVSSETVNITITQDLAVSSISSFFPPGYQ

[19] = target: His-tagged biotinylated cynomolgus FcγRIIa monomeric ECD (Sino Biological) (cynomolgus (Macaca fascicularis)); assay: BLI, FcγR on SA sensor, steady state
[20] = target: His-tagged biotinylated cynomolgus FcγRIIb monomeric ECD (Sino Biological) (cynomolgus (Macaca fascicularis)); assay: BLI, FcγR on SA sensor, steady state

Sequence of His-tagged murine FcγRI monomeric ECD (Sino Biological) (murine) (P26151 25-297): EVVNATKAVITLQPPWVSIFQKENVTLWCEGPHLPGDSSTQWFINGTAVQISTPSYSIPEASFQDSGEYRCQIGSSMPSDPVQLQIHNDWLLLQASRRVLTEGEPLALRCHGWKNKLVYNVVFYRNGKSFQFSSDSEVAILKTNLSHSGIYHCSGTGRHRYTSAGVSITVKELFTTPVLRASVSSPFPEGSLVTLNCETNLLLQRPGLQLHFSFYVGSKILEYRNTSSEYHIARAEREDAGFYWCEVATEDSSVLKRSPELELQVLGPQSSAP
Sequence of His-tagged biotinylated murine FcγRIV monomeric ECD (Sino Biological) (murine) (A0A0B4 entry or part of it limits assumed): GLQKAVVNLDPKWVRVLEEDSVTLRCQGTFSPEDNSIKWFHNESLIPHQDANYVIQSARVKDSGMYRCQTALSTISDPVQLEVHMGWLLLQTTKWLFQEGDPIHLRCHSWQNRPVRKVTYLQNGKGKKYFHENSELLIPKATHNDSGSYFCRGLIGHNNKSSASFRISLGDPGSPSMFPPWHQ
Sequence of His-tagged biotinylated human FcγRIIIa allotype 158V monomeric ECD (Sino Biological) (human) (P08637 17-208 F176V): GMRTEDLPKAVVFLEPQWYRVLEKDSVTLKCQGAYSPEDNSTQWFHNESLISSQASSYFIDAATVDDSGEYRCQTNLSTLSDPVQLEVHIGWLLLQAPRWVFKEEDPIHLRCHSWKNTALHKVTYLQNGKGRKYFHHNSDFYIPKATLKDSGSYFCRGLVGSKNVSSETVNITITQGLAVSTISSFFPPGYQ

Row | Substance | Kd [3] | koff [3] | kon [3] | Kd [7] | Kd [8] | Kd [9] | Kd [11] | Kd [12] | Kd [14] | koff [14] | kon [14] | fold reduction of binding affinity vs wild-type IgG2a [15] | other results
1 | murine anti-human CD20 IgG2a-L234A-L235A (antibody) | 238 nM | 0.00231 s⁻¹ | 9730 M⁻¹ s⁻¹ |  |  |  |  |  |  |  |  |  | Kd [1]: 13800 nM; Kd [2]: 11700 nM; Kd [4]: 13800 nM; Kd [5]: 3610 nM; koff [5]: 0.0163 s⁻¹; kon [5]: 4530 M⁻¹ s⁻¹; fold reduction vs wt IgG2a [6]: 100 fold
2 | wild-type murine anti-human CD20 IgG2a antibody | 3.82 nM | 0.000619 s⁻¹ | 162000 M⁻¹ s⁻¹ | 1.27 nM | 6400 nM | 6900 nM | 145 nM | 1950 nM |  |  |  |  | koff [7]: 0.00039 s⁻¹; kon [7]: 311000 M⁻¹ s⁻¹; Kd [10]: 1850 nM; Kd [13]: 17000 nM
3 | murine anti-human CD20 IgG2a-L234A-L235A-P329G (antibody) |  |  |  |  |  |  |  |  | 364 nM | 0.002 s⁻¹ | 5500 M⁻¹ s⁻¹ | 100 fold | 
4 | anti-human CD20 IgG1-L234F-L235E-G236R-K409R (antibody) |  |  |  |  |  |  |  |  |  |  |  |  | reduction of ADCC of Raji cells [16]: 69%
5 | wild-type anti-human CD20 IgG1 antibody (IgG1-CD20) | 124 nM |  |  | 1.84 nM | 2850 nM | 7450 nM | 1040 nM | 565 nM |  |  |  |  | Kd [17]: 0.626 nM; Kd [18]: 415 nM; Kd [19]: 4250 nM; Kd [20]: 3900 nM
6 | murine anti-human CD20 IgG2a-L234F-L235E-G236R (antibody) |  |  |  |  |  |  |  |  | 430 nM | 0.00227 s⁻¹ | 5300 M⁻¹ s⁻¹ | 100 fold | 
